Source: the supplement of paper PMC12764529
± gives the half width of the 95% confidence interval.

Legend:
[1] = folding stability dG unfold (combined trypsin and chymotrypsin); higher = more stable
Procedure, shortened: (§1)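 How resistant each design was to proteolysis was captured as K50, inferred by Bayesian fitting of sequencing counts. Unfolding free energy was then derived relative to a sequence-predicted unfolded-state K50 and a shared folded-state K50, per protease or combined. Digestion used trypsin and chymotrypsin at 11 threefold-diluted concentrations plus a no-protease condition, on mini-proteins under 80 residues without cysteine in a PA-tagged cDNA display construct. Designs were kept only when AlphaFold2 dimer inter-PAE was above 15.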

[2] = folding stability dG unfold from chymotrypsin proteolysis; higher = more stable
Procedure, shortened: as §1

[3] = folding stability dG unfold from trypsin proteolysis; higher = more stable
Procedure, shortened: as §1

| Sequence | folding stability dG unfold [1] | folding stability dG unfold [2] | folding stability dG unfold [3] |
| --- | --- | --- | --- |
| SAGGSAGGSAGASPSVPFTVKVTIKSPNGLSTKTISLSSLEDLEALPLPNVVEIEITPLSSAGGSAGGSAGG [r17_290_JUSTAS] | 0.907 ± 0.14 kcal/mol | 0.78 ± 0.14 kcal/mol | 1.04 ± 0.049 kcal/mol |
| SAGGSAGGSAGDAEEIADEIRENMYGPDGKYVPKEVEIKEIEPPPGQLKVEIEMPPGMPISAGGSAGGSAGG [r17_519_TrROS] | 1.32 ± 0.16 kcal/mol | 0.954 ± 0.077 kcal/mol | 1.81 ± 0.13 kcal/mol |
| SAGGSAGGSAGDDGSDLPVVDLKVSISPFVRPLPNGEEVTVWKVLVENPGSSSRSEFYFGSAGGSAGGSAGG [r17_59_TrMRF] | 0.283 ± 0.15 kcal/mol | 0.118 ± 0.19 kcal/mol | 0.337 ± 0.12 kcal/mol |
| SAGGSAGGSAGDDNKKKPKPKIEIQPVRMTMPFPENGLRIEIDIWVIKDGNIIFMIEWYPSAGGSAGGSAGG [r11_463_TrROS] | 3.3 ± 0.11 kcal/mol | 3.72 ± 0.17 kcal/mol | 2.92 ± 0.12 kcal/mol |
| SAGGSAGGSAGDEKYTLTVTIPVPKNAPVLVGAEKGYEVIDLNPDAPVEEGYITVKVEFGSAGGSAGGSAGG [r11_701_TrMRF] | -0.391 ± 0.15 kcal/mol | -0.833 ± 0.14 kcal/mol | -0.376 ± 0.086 kcal/mol |
| SAGGSAGGSAGDEPNDVVKIDFTFFFEDGYMIEMDIVIVPNGNIAIEIEIEPIKPPDEGDSAGGSAGGSAGG [r11_998_TrROS] | 2.09 ± 0.31 kcal/mol | 1.9 ± 0.13 kcal/mol | 2.06 ± 0.39 kcal/mol |
| SAGGSAGGSAGDFELDFEWHRTNDHVVLSNKARDPDNGKPLYISIIFDPDPGKLDISIMPSAGGSAGGSAGG [r17_242_TrROS] | 0.0261 ± 0.083 kcal/mol | -0.858 ± 0.59 kcal/mol | 0.396 ± 0.036 kcal/mol |
| SAGGSAGGSAGDGINFTLDIPIEGDFELRDVYLTPLEPENRRAFFLLRYKDGPVLLTLPLSAGGSAGGSAGG [r11_1013_TrMRF] | 1.09 ± 0.1 kcal/mol | 0.922 ± 0.18 kcal/mol | 1.21 ± 0.12 kcal/mol |
| SAGGSAGGSAGDIPAIPKVIFIPYPIEKIEVFEDSVVVRVIHPDGGSETIVFPDRALILGSAGGSAGGSAGG [r11_957_TrMRF] | 1.53 ± 0.11 kcal/mol | 1.47 ± 0.03 kcal/mol | 1.6 ± 0.042 kcal/mol |
| SAGGSAGGSAGDKNGKPPPKIEIVPIRMSFRFPELGWWIEIDIYVIKDPAIMISISLYPYSAGGSAGGSAGG [r11_883_TrROS] | 4.91 ± 0.35 kcal/mol | 5.25 ± 0.17 kcal/mol | 3.61 ± 0.22 kcal/mol |
| SAGGSAGGSAGDNFKIKIESFNIMRLPDGYVMISIKIEITVGDKPVEITIMIIIPPGAPISAGGSAGGSAGG [r17_352_TrROS] | 5.68 ± 0.41 kcal/mol | 5.74 ± 0.18 kcal/mol | 4.03 ± 0.15 kcal/mol |
| SAGGSAGGSAGDPKKKPPKPILGFELAEFEITTEDGTKYKVKALIIYFPDTGTKVIFVLGSAGGSAGGSAGG [r11_1024_TrMRF] | 4.33 ± 0.18 kcal/mol | 4.73 ± 0.13 kcal/mol | 2.78 ± 0.13 kcal/mol |
| SAGGSAGGSAGDTSVEYEVSVTVEVFPLPDYALVKVTLEVDYPDGSKEKVEYVFLVSPYEGSAGGSAGGSAG [r3_330_TrMRF] | 3.04 ± 0.1 kcal/mol | 3.35 ± 0.082 kcal/mol | 2.56 ± 0.19 kcal/mol |
| SAGGSAGGSAGDVPPSETVTITVSSEAEKEAIKKEHPEVNLTFTEAEPPVAFDPTSDVTASAGGSAGGSAGG [r17_126_JUSTAS] | 1.21 ± 0.17 kcal/mol | 1.27 ± 0.15 kcal/mol | 0.842 ± 0.096 kcal/mol |
| SAGGSAGGSAGEEEELPLVIRVRFKGPEEVEIEIEAESLEDALAAIESLPDIEEIEILPRSAGGSAGGSAGG [r11_587_TrROS_Hall] | 1.61 ± 0.055 kcal/mol | 1.982 ± 0.0079 kcal/mol | 0.632 ± 0.034 kcal/mol |
| SAGGSAGGSAGEEFIKKIPPGAEVKPITPLESEGKVYVKITVKKKDENGKWTEEEFIFKVSAGGSAGGSAGG [r17_140_JUSTAS] | 1.28 ± 0.22 kcal/mol | 1.38 ± 0.087 kcal/mol | 1.17 ± 0.072 kcal/mol |
| SAGGSAGGSAGEEKEYRIVVPFDSDDPEAFVRAVFDGIPPDVPIKAIDFNPELGYGVVVASAGGSAGGSAGG [r11_698_TrMRF] | 0.892 ± 0.11 kcal/mol | 1.07 ± 0.072 kcal/mol | 0.364 ± 0.091 kcal/mol |
| SAGGSAGGSAGEFEILSIETEPPNGRVEIAIRFDDWVVVINFDNPNEPELYPVRPDDGIFSAGGSAGGSAGG [r17_145_TrROS] | 2.3 ± 0.17 kcal/mol | 2.24 ± 0.12 kcal/mol | 2.54 ± 0.19 kcal/mol |
| SAGGSAGGSAGEIEVTVTFTGDDGYVVEVKYTFEVPEPNNPIIKKVEVKVKKLKPNEPASSAGGSAGGSAGG [r11_517_TrMRF] | 2.22 ± 0.23 kcal/mol | 2.63 ± 0.063 kcal/mol | 1.12 ± 0.075 kcal/mol |
| SAGGSAGGSAGEKDLPVIEVEFPFPSSFPLPLIKKFAEPFGVKKVEFFEDGTVKVLYVLDSAGGSAGGSAGG [r11_961_TrMRF] | 0.806 ± 0.13 kcal/mol | 0.984 ± 0.14 kcal/mol | 0.416 ± 0.1 kcal/mol |
| SAGGSAGGSAGEKTFVIDEVKITSVERLPDGSLRVTIEVRLPNGETLTLTLTLPPGAVLESAGGSAGGSAGG [r11_429_TrROS_Hall] | 3.05 ± 0.07 kcal/mol | 3.19 ± 0.042 kcal/mol | 2.84 ± 0.11 kcal/mol |
| SAGGSAGGSAGEKTIKIKVKDKNGKTKTITLKIKNAKFKPGQKIEIVKVNKNGSLEIKLKSAGGSAGGSAGG [r11_733_TrROS_Hall] | 1.6 ± 0.24 kcal/mol | 1.82 ± 0.087 kcal/mol | 0.678 ± 0.059 kcal/mol |
| SAGGSAGGSAGEKVIRFPFKSPEEIREHIKNGRPIRFPNGKPVKITKIQPYPNGWLWITVSAGGSAGGSAGG [r11_48_TrROS] | 1.12 ± 0.21 kcal/mol | 1.3 ± 0.12 kcal/mol | 0.89 ± 0.05 kcal/mol |
| SAGGSAGGSAGEKVKLVITTTVTLPALDPEGGEFVGPVTFTETIVLDMNPEDAARLLAAASAGGSAGGSAGG [r17_283_TrMRF] | 2.23 ± 0.056 kcal/mol | 2.675 ± 0.013 kcal/mol | 1.4 ± 0.034 kcal/mol |
| SAGGSAGGSAGENKPIKVLVFLEKEDEYYEELFEFDSPEEIEEWLKKIPKDYKVKKVIVFSAGGSAGGSAGG [r17_410_TrMRF] | 3.61 ± 0.16 kcal/mol | 3.95 ± 0.14 kcal/mol | 3.09 ± 0.11 kcal/mol |
| SAGGSAGGSAGEPIKGIIRVYNPETGEVTDIELEFKTLEEALAFAASLPPTVARVEIVFASAGGSAGGSAGG [r11_25_TrMRF] | 2.66 ± 0.095 kcal/mol | 3.002 ± 0.03 kcal/mol | 1.6 ± 0.059 kcal/mol |
